Test results from publication PMC8685681.

Legend:
[1] = target: M1 muscarinic acetylcholine receptor, wild type (M1-WT), transfected in HEK293T cells (UniProt P12657)
[2] = target: phosphorylation-deficient M1 muscarinic acetylcholine receptor (M1-PD), transfected in HEK293T cells (UniProt P12657)

Substance	Emax of ACh-stimulated Gq activation (BRET biosensor, decrease in BRET, HEK cells) [1]	Emax of ACh-stimulated Gq activation (BRET biosensor, decrease in BRET, HEK cells) [2]	Emax of ACh-stimulated β-arrestin-2 recruitment (bystander BRET: translocation of β-arrestin-2 to the cell membrane, HEK293T cells) [1]	Emax of ACh-stimulated β-arrestin-2 recruitment (bystander BRET: translocation of β-arrestin-2 to the cell membrane, HEK293T cells) [2]
Gq (Gαq, BRET biosensor of Gq activation in HEK cells) (from UniProt P50148 1-359) (natural protein)	100	108	–	–
β-arrestin-2 (bystander BRET sensor in HEK293T cells) (from UniProt P32121 1-409) (natural protein)	–	–	104	40.7
